This is an account of results in patent US20100016275A1, “NOVEL COMPOUND 395” (priority 2008, published 2010).

This assay concerns the target T1, human CXCR2 receptor (Homo sapiens, UniProt P25025).
T1 construct: expressed in transfected cells; host or cells: HEK293, stably transfected geneticin-resistant clones, vector RcCMV; membranes purified by sucrose gradient
T1 sequence (P25025 1-360): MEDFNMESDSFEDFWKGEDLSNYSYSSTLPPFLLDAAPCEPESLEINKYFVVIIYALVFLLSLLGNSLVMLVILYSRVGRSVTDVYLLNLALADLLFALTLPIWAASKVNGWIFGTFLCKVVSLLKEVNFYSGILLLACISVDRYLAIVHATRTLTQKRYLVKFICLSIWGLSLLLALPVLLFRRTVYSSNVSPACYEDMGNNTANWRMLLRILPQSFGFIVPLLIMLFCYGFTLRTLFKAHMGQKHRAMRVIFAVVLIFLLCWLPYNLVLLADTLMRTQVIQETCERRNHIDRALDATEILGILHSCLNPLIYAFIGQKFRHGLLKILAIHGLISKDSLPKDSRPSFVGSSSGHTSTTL
The experiment in a line: Potency (pIC50) ligand binding assay, inhibition of [125I]IL-8 binding. The conditions noted are these: human CXCR2 membranes; read-out: Kd (equilibrium dissociation constant) determined for IL-8. Here is the method: Potency (pIC50)—Ligand Binding Assay
The potency of antagonists at the human CXCR2 receptor was determined in vitro by quantifying their ability to inhibit specific binding of the CXCR2 radioligand, [^125I]interleukin-8 (IL-8), from membranes of HEK293 cells transfected with the human recombinant CXCR2 receptor.
Commercially sourced materials were obtained as follows: U-bottomed 96-well plates (3799) and 225 cm^2 vented cap culture flasks (3001) from Costar, Corning, Kent, UK. Multiscreen filter plates (0.45 μm; MAHV N45 50), vacuum manifold and pump (XF54 230 50) from Millipore, Watford, UK. N-[2-hydroxyethyl]piperazine-N′-[2ethanesulphonic acid] (HEPES; H-3375), ethylene diamine-tetraacetic acid (EDTA; E1644), magnesium chloride (M-9272), gelatin (G9382), dithiothreitol (DTT; D06052), sodium chloride (S3160/63), sodium hydroxide (B6506), bacitracin (B0125), inactivated foetal calf serum (FCS; CR0848) and DMSO Fluka Chemika (41648) from Sigma, Poole, UK. MicroScint-O (6013611) Packard BioScience, Pangboume, UK. Complete protease inhibitor cocktail tablets (1836145) from Boehringer s Mannheim, GmbH, Germany. Human recombinant [^125I]IL-8 74 TBq/mmol, 0.712 MBq/ml (IM249) from Amersham, Horsham UK. All other tissue culture reagents were purchased from Invitrogen, Paisley, Scotland, UK. All other chemical reagents were analytical grade from Fisher Scientific, Loughborough, UK
HEPES-buffered salt solution pH 7.4 containing HEPES (10 mM), potassium chloride (2.7 mM), sodium chloride (137 mM), potassium hydrogen phosphate (0.4 mM), calcium chloride (1.8 mM), magnesium chloride (1 mM), gelatin (0.1% (w/v)) and bacitracin (100 μg/ml).
HEPES-buffered Tyrode's solution pH 7.4 containing HEPES (10 mM), potassium chloride (2.7 mM), sodium chloride (137 mM), potassium hydrogen phosphate (0.4 mM), glucose (11 mM).
Hypotonic buffer: 3:1 mix of water: HEPES-buffered Tyrode's solution.
HEK293 cells were transfected with human CXCR2 (EMBL L19593) cDNA, previously cloned into the eukaryotic expression vector RcCMV. Cloned cell-lines were generated from stably-transfected geneticin-resistant populations. Cells were routinely grown to approximately 80% confluence in DMEM medium containing 10% (v/v) foetal calf serum and glutamine (2 mM) in a humidified incubator at 37° C., 5% CO2. Cells were harvested from flasks using Accutase™ at 37° C. for 3 to 5 minutes and resuspended on ice in hypotonic buffer at a density of 2×10^7 cells/mL. Membranes were prepared on ice by homogenisaton using a polytron tissue homogenizer set at 22000 rpm. The membrane fraction was purified by sucrose gradient centrifugation where homogenised cells were layered onto 41% (w/v) sucrose solution then centrifuged at 140000 g for 1 hour at 4° C. The membrane fraction was harvested at the interface, diluted 4-fold with HEPES-buffered Tyrode's solution and centrifuged at 100000 g for 20 minutes at 4° C. The membrane pellet was re-suspended at 1×10^8 cell equivalents/mL in HEPES-buffered Tyrode's solution and subsequently stored in aliquots at −80° C. All buffers used for membrane preparation and storage were made in the presence of 1 mM DTT and Complete Protease Inhibitor™ cocktail tablets, made up to manufacturers instructions.
Assays were performed in HEPES-buffered salt solution in 96-well plates. [^125I]IL-8 was used at a final concentration of 0.06 nM, pre-diluted from a 9.6 nM stock. The final DMSO concentration in the assay was 1% (v/v). Test compounds were prepared by serial dilution in DMSO followed by a ten-fold dilution into HEPES-buffered salt solution to give a working solution containing compound and 10% DMSO. The control for total binding (B0) of [^125I]IL-8 was determined in the absence of compound. The control for non-specific binding (NSB) was determined by measuring [^125I]IL-8 binding in the presence of (1R)-5-[[(3 -chloro-2-fluorophenyl)methyl]thio]-7-[[2-hydroxy-1-methylethyl]amino]thiazolo[4,5-d]pyrimidin-2(3H)-one dihydrate, sodium salt at 1 μM final concentration. […]

Turning to “IL-8: interleukin-8, CXCR2 ligand, used as the human recombinant [125I] radioligand”, the Kd (in general, the equilibrium constant for the complex coming apart) was found to be 1.2 nM.
